The test system of one assay is human CD4+ T cells. The assay is described as follows: Cytokine secretion by CD4+ T cells with C5aR or C5aR/C5L2 blockade (Cytometric Bead Array). The format is cell-based. From the text: Human blood was obtained from healthy volunteers following ethical guidelines set by Kings College London (KCL) ethics committee (REC: 09/H0804/72). PBMCs were isolated by density centrifugation (Ficoll-Paque PLUS; GE healthcare, Uppsala, Sweden). Cell subsets were isolated by magnetic separation following manufacturer's instructions (Miltenyi Biotec, Auburn, Calif.). Monocytes were positively selected using anti-CD14 microbeads (average purity 97%) and CD4^+ T cells were isolated from the CD14-negative fraction using anti-CD4 microbeads (average purity 98%). Alternatively, CD4^+ T cells were isolated from purified PBMCs by cell sorting after staining with antibodies to CD14 and CD4 and CD3.
CD4^+ T cells and CD14^+ monocytes were cultured in medium (RPMI-1640 medium (Sigma-Alich, Suffolk, UK), supplemented with 1% GlutaMAX, 1% penicillin/streptomycin (both Life Technologies, Paisley, UK) and 10% FBS (HyClone Laboratories, Logan, Utah). In the case of T cells media was supplemented with 25 U/ml IL-2 (Sigma-Aldrich; or with concentrations indicated in figure legends). CD4^+ T cells (2.5×10^5) were cultured alone or together with plate-bound anti-CD3 (OKT3, Biolegend, San Diego, Calif.), anti-CD3 and anti-CD28 (CD28.2, BD Pharmingen, San Jose, Calif.) or anti-CD3 and anti-CD46 (TRA-2-10, provided by John Atkinson, Washington University, St Louis, Mo.) all immobilised onto 48-well plates at concentrations of 2 μg/ml PBS overnight at 4° C. Monocytes (2.5×10^5) were cultured either alone or in the presence of LPS or Flagellin (1 μg/ml). […] Cells were cultured at 37° C. and 5% CO2 and cytokine secetion assessed at 12, 24 or 36 h post activation.
The Th1/Th2/Th17 Cytometric Bead Array (BD Bioscience) was used to quantify cytokine production by CD4^+ T cells and monocytes following 12 or 36 h culture under distinct activation conditions. Samples were processed following manufacturer's instructions and acquired using BD FACScan. IL-1β amounts secreted into the cell media were measured by ELISA, according to the manufacturer's protocol (R&D Systems, Abingdon, UK).

Assay [1] relates to natural regulatory T cells (nTregs). The assay is described as follows: nTreg suppression assay (CFSE dilution). The format is cell-based, human. The following applies: nTregs pre-incubated with 7 μM dRA for 8 hr; 1:1 co-culture; FIG. 14. As for the experimental part:
FIG. 14. C5L2 blockage decreases suppressive activity of natural regulatory T cells (nTregs). nTregs and effector T cells from a freshly drawn human blood sample were separated by cell sorting (CD4^+CD25^hiCD127^lo Treg cells; CD4^+CD25^loCD127^hi effector T cells). nTreg cells were incubated in media containing 7 μM of the C5ar/C5L2 double antagonist (dRA) for 8 hr. Cells were then washed twice to remove the dRA and used for a suppression assay via CSFE dilution measurement in 1:1 co-culture and percentage of suppression calculated. Shown are the mean values of two separately performed experiments.
nTregs were isolated essentially as described in Yates, J., et al., Int Immunol. (2007) 19(6):785-99. […]
Principle • Label target cells (T effectors (Teff) usually) with 1 μM CFSE as described • Activate cells with and without Tregs in serial dilution (constant Teff numbers) • CFSE will be evenly split among daughter cells, so peaks on flow will correspond to each round of division (halving of CFSE) • The percentage of dividing precursors can be calculated this way. • In the presence of Tregs, the suppression of division can be estimated. […]
• 1. […] Acquire FL1 fluorescence of each well on day 4 and calculate suppression of CFSE dilution by Tregs (different methods exist for this) * If there is inadequate CFSE labelling, pulse with ^3H-Thymidine on day 5 instead, as a readout for suppression. […]

[2] abbreviates: activated CD4+ T cells, dRA 7 μM, PMX53 10 μM, FIG. 6.

We go through one molecule from patent publication US20220088131A1, “COMPOSITIONS AND METHODS RELATING TO C5L2” (King's College London, priority 2013, published 2022).

B1: A8delta71-73: Dual C5aR/C5L2 receptor antagonist; C5a variant A8 (C27A, H67F, D69R, M70S, Q71L, G73R, Arg74 deleted) lacking amino acids 71-73 (protein)
chain: TLQKKIEEIAAKYKHSVVKKCCYDGAAVNNDETCEQRAARISLGPRCIKAFTECCVVASQLRANISFKRS
B1: in the assay on human CD4+ T cells (setting [2]), the “secretion of IFN-γ” value is “increased secretion” and the “secretion of IL-17” value is reported as “increased secretion”. The “secretion of IL-6” value in the assay with human CD4+ T cells (resting and activated CD4+ T cells, FIG. 7A) is reported as “increased secretion”. Also, the “suppressor function of nTregs” value in assay [1] is “markedly reduced”.
